The results in this text go back to patent publication US20200239570A1 (CRESCENDO BIOLOGICS, published 2020).

Assay [1] deals with T1, mouse PD1 (R&D Systems cat no. 1021-PD) (mouse, UniProt Q02242 25-167).
T1 construct: bought recombinant protein; also called mouse PD-1 protein
T1 sequence (looked up): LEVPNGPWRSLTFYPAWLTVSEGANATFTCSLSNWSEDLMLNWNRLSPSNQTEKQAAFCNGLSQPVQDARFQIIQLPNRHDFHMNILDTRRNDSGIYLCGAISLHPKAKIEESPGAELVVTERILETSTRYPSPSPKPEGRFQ
Kind of assay: HTRF binding assay, 2 nM mouse PD-1. For orientation: TR-FRET usually uses a lanthanide donor and a delayed reading to cut background.

Assay [2] addresses T2, human PD-1 expressed on cells (CHO human PD-1 cells) (human, UniProt Q15116 21-288).
T2 construct: CHO cells in the FMAT assays; Jurkat reporter cells in the reporter assay; primary CD4+ T cells in the mixed lymphocyte reaction; also called CHO TREX human PD1 cell line; CHO PD-1
As to the kind of experiment: FMAT, His-tagged VH on CHO human PD-1 cells.

Assay [3] has as its target T3, recombinant human PD-1 Fc chimera (human, UniProt Q15116 25-167).
T3 construct: Bought (R&D 1086-PD); Labelled with europium cryptate in the PD-L2 HTRF assay; also called human PD-1 (R&D Systems cat no. 1086-PD); human PD-1-huFc; not shown: human Fc of the bought chimera
Kind of assay: HTRF binding assay, His-tagged VH on 2 nM recombinant PD-1. As for the experimental part:
(§1) Purified VH were tested for their ability to bind to human PD-1 (R&D Systems cat no. 1086-PD), cynomolgus PD-1 (Acro Biosystems cat no. PD1-C5254) and mouse PD1 (R&D Systems cat no. 1021-PD) in an HTRF Binding assay format. All reagents and serially diluted VH were prepared in assay buffer containing PBS, 0.1% BSA and 0.4M Potassium Fluoride. Samples or assay buffer (non-specific binding) were incubated with 2 nM human/cynomolgus or mouse PD-1, 1 nM Anti human-Fc Cryptate PAb (Cisbio cat. no. 61HFCKLB) and 30 nM anti His-D2 (CisBio cat no 61HISDLA) in black 384-shallow well assay plates for a minimum of 3 hours at room temperature. Time-resolved fluorescent emission at 620 nm and 665 nm was measured following excitation at 337 nm on the BMG PHERAstar plate reader. The HTRF ratio were calculated ((665 nm emission/620 nm emission)*10000) and the data corrected for (non-specific binding) to give the specific binding signal.

The target in assay [4] is T4, cynomolgus PD-1 (Acro Biosystems cat no. PD1-C5254) (cynomolgus, UniProt B0LAJ3 25-170).
T4 construct: bought recombinant protein; also called cyno PD-1; cynomolgus PD-1 recombinant protein; not shown: Human Fc tag of the vendor's construct, and any linker to it; The Fc is implied by detection with anti human-Fc cryptate
T4 sequence (B0LAJ3 entry or part of it limits assumed): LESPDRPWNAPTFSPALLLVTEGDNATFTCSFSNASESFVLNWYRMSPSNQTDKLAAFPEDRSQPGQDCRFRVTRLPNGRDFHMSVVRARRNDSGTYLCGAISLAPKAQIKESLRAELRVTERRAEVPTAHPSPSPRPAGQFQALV
The description is as above. As for the experimental part: as §1

Assay [5] addresses T3, recombinant human PD-1 Fc chimera. As to the kind of experiment: SPR (Biacore T200), PD-1-huFc amine-coupled to CM5, single cycle kinetics, 1:1 fit. As for the experimental part: Binding kinetics of certain VH single domain antibodies binding to human PD-1-huFc were measured by surface plasmon resonance (SPR) technology using Biacore T200 instrument (GE Healthcare). Recombinant human PD-1-huFc was immobilized by standard amine coupling to CM5 sensorschip (GE Healthcare) using 0.01 mg/ml solution of antigen in 10 mM sodium acetate at pH 5.5. For the reference flow cell, a blank immobilisation was carried out. Single cycle kinetics assays were used to study the interaction, a five point, three-fold dilution series of each Humabody® was made with a top concentration of 30 nM. The binding kinetics were followed by flowing the Humabody® over the chip surface in HBS EP+ buffer at a flow rate of 30 μl/min. The contact time for each of the association steps was 180 seconds and the dissociation step was varied between 1200-3600 seconds. The data was fitted to a 1:1 binding model after double reference subtraction using the Biacore T200 Evaluation software.
(In SPR one partner is held on a chip, and binding of the other changes the refractive index at the surface.)

For assay [6], the target named is T2, human PD-1 expressed on cells (CHO …). As to the kind of experiment: FMAT epitope competition on CHO human PD-1 cells; competitor 2 nM 1.1-Strep tagged protein. As for the experimental part:
(§2) For the epitope competition assay reagents were prepared in FMAT assay buffer. […] Plates were incubated for a minimum of 1.5 hours at room temperature then fluorescence measured in the FL2 (502 nm-537 nm) and FL5 (677-800 nm) channels on the Mirrorball plate reader (TTP) following excitation at 488 nm and 640 nm. Data was expressed as a % of the total binding control (i.e. % control) after subtraction of the background signal determined from the non-specific binding control wells.

For assay [7] the target is unchanged. As to the kind of experiment: FMAT epitope competition on CHO human PD-1 cells; competitor 2 nM 2.1-Strep tagged protein. As for the experimental part:
as §2

For assay [8] the target is unchanged. As to the kind of experiment: 2.1 epitope competition assay (FMAT, CHO human PD-1 cells; competitor 2.1-Strep); VH pre-incubated in mouse serum, Day 0. As for the experimental part: (§3) Serum stability of VH was assessed by measurement of its activity following incubation for 0, 1, 4 or 7 days in both human and mouse serum (Sigma M5905). The pre-incubated samples were serially diluted and tested in the 2.1 epitope competition assay.
as §2

The target is the same in assay [9]. As to the kind of experiment: 2.1 epitope competition assay (FMAT, CHO human PD-1 cells; competitor 2.1-Strep); VH pre-incubated in human serum at 37 C, Day 1. As for the experimental part:
as §3, §2

Assay [10] shares this target. As to the kind of experiment: 2.1 epitope competition assay (FMAT, CHO human PD-1 cells; competitor 2.1-Strep); VH pre-incubated in human serum at 37 C, Day 4. As for the experimental part:
as §3, §2

Assay [11] shares this target. As to the kind of experiment: 2.1 epitope competition assay (FMAT, CHO human PD-1 cells; competitor 2.1-Strep); VH pre-incubated in human serum at 37 C, Day 7. As for the experimental part: as §3, §2
The target is the same in assay [12]. Kind of assay: 2.1 epitope competition assay (FMAT, CHO human PD-1 cells; competitor 2.1-Strep); VH pre-incubated in mouse serum at 37 C, Day 1. As for the experimental part:
as §3, §2

Assay [13] has the same target. Kind of assay: 2.1 epitope competition assay (FMAT, CHO human PD-1 cells; competitor 2.1-Strep); VH pre-incubated in mouse serum at 37 C, Day 4. As for the experimental part:
as §3, §2

For assay [14] the target is unchanged. As to the kind of experiment: 2.1 epitope competition assay (FMAT, CHO human PD-1 cells; competitor 2.1-Strep); VH pre-incubated in mouse serum at 37 C, Day 7. As for the experimental part: as §3, §2
Assay [15] shares this target. Kind of assay: 2.1 epitope competition assay (FMAT, CHO human PD-1 cells; competitor 2.1-Strep); VH pre-incubated in human serum, Day 0; Day 0, human serum. As for the experimental part:
as §3, §2

T2 sequence (Q15116 21-288): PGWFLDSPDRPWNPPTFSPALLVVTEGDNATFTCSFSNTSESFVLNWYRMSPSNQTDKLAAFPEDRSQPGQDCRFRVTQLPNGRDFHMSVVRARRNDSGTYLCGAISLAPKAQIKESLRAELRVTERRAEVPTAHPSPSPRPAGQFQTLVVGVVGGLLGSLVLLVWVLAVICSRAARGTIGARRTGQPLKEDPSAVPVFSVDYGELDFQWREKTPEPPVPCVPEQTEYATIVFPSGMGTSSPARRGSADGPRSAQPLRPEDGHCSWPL
T3 sequence (Q15116 25-167, change not shown): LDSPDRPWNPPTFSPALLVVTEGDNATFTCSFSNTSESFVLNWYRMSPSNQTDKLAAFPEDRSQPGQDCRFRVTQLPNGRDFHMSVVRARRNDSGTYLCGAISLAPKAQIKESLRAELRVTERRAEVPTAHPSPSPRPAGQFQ

B1: Humabody VH 1.39 (VHH)
VHH: EVQLVESGGGLVQPGRSLRLSCAASGFTFDDYALHWVRQAPGKDLEWVSGISWNGGSYGYADSVKGRFTISRDNAKNSLYLQMNSLRAEDTALYYCVREKGPGLTGSTADYYGLDAWGQGTMVTVSS
notes: human VH single domain antibody
By EC50 is commonly meant the midpoint of the concentration-response curve. What is called Kd is the free concentration of one partner at which half of the binding sites on the other are occupied at equilibrium, for simple one-to-one binding. What is called koff is the first-order rate constant of dissociation. Broadly, the kon is the rate constant with which the complex forms. One may read the IC50 as the midpoint of a concentration-inhibition curve. Higher therefore signals weaker potency. For B1, the binding result in assay [1] is listed as “no binding”. Moreover, the EC50 in assay [2] came out at 0.6 nM; in [3], 2.6 nM; in [4], 6 nM. For the same molecule, in [5], the Kd was determined as 4.24 nM. Moreover, the koff in [5] worked out at 0.00134 s⁻¹. Further, the kon in assay [5] was found to be 316000 M⁻¹ s⁻¹. Further, the IC50 in [6] came to 8.9 nM; in assay [7] it was 9.7 nM; in assay [8], 8.7 nM; in assay [9], 10.1 nM; in assay [10], 10.2 nM; in assay [11], 9.3 nM. The IC50 worked out at 9.3 nM in assay [12], 11.1 nM in [13], 11.6 nM in assay [14] and 12.9 nM in assay [15].
